Test: yeast display, Sf9 membrane polyspecificity reagent, FACS + sequencing; frameworks hold sequencing errors
Outline: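 Using colony PCR, genes from sorted yeast display clones were amplified, then sequenced on MiSeq at 2 × 250 and filtered by CDR length. The clones had been stained with 10% biotinylated, detergent-solubilized Sf9 membrane reagent for 1 hour at 4 °C and sorted by FACS into low and high (top ~1%) gates on anti-HA and streptavidin fluorescence. Polyreactivity labels come from the gate of origin.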

Row | Sequence | polyreactivity (PSR sort gate)
1 | QVQLVESGGGLVQAGGSLRLSCAASGFTFEEYAMGWYRQAPGKERELVAAIDYTVGSTYYADSVKGRFTISRDNAKNTVYLQMNSLKPEDTAVYYCNVDLSYSFNSAYGYWGQGTQVTVSS | low polyreactivity
2 | QVQLVESGGGLVQAGGSLRLSCAASGFTFEKNAMGWDRQAPGKERELGAAISRGGSTYADSVKGRFTISRDNAKNTVHLQINSLKPEDTAVYYCAADTVYIFSSAINGEFGDWGQGTQVTVSS | low polyreactivity
3 | QVQLVESGGGLVQAGGSLRLSCAASGFTFEKYSMGWYRQAPGKERELVAAITQSAGSTYADSVKGRFTISRDNAKNTVYLQMISLKPEDTAVYYFAARYRYPYYARYGYWGQGTQVTVSS | high polyreactivity
4 | QVQLVESGGGLVQAGGSLRLSCAASGFTFEWYTMGWYRQAPGKERELVADISGDGTTYYADSVKGRFTISRDNAKNTLYLQMNSLKPEDTAVYYCAARTVGRKAGFDYWGQGTQVTVSS | high polyreactivity
5 | QVQLVESGGGLVQAGGSLRLSCAASGFTFEYNAMGWYRQAPGKERELVAAISRSGGSTYYADSVKGRFTISRDNAKNTVYLQMNSLIPEDTAVYYCAAEPYPLPSYGYWGQGTQVTVSS | high polyreactivity
6 | QVQLVESGGGLVQAGGSLRLSCAASGFTFEYYAMGWYRQAPGKEREFVAAISARGDSTYYADSVKGRFTISRDNAKNTVYLQMNSLKPEDSAVYYCAKKTSPRRYYYWGQGTQVTVSS | high polyreactivity
7 | QVQLVESGGGLVQAGGSLRLSCAASGFTFFDNAMGWYRQAPGKERELVAVISSGGRTYYADSVKGRFTISRDNAKNTVYLQMNSLTPEDTAVYYCNAARAQRVKYDYWGQGTQVTVSS | high polyreactivity
8 | QVQLVESGGGLVQAGGSLRLSCAASGFTFFGNAMGWYRQAPGKERELVAAITGRAGRTYYADSVKGRFTISRDNAKNTVYLQMNSLKPEDTAVYYCAAKIRTSDMGYWGQGTQVTVSS | high polyreactivity
9 | QVQLVESGGGLVQAGGSLRLSCAASGFTFFHNAMGWYRQAPGKERELVAAITSGGNTYYADSVKGRFTISRDNAKNTVYLQMNSLKPEDTAVYFCNAVISRVVRYEYWGQGTQVTVSS | high polyreactivity
10 | QVQLVESGGGLVQAGGSLRLSCAASGFTFFHYAMGWYRQAPGKERELVAAIDYSAGSTYYADSVKGRFTISRDNAKNTVYLQMNSMKPEDTAVYYCAADARTSRGRRYYYWGQGTQVTVSS | low polyreactivity
11 | QVQLVESGGGLVQAGGSLRLSCAASGFTFFKYAMGWYRQAPGKERELVAAISSSGGSTYYADSVKGRFTISRDNAKNTVYLQMNSLKPEDTAVYYCNRPAAVYFKLVTAYDYWGQGTQVTVSS | high polyreactivity
12 | QVQLVESGGGLVQAGGSLRLSCAASGFTFFLYAMGWYRQAAGKERELGAAINSRGGSTYYADSVKGRFTLSRDNAKNTVYLQMNSLKPEDTAVYYCAAYIPRSYCGYDYGGQGTQVTVSS | high polyreactivity
13 | QVQLVESGGGLVQAGGSLRLSCAASGFTFFLYAMGWYRQAPGKERELVARISSGRDTYYADSVKGRFTISRDNAKKTVYLQMNSLKPEDTAVYYCAVAFWFGYRYYYWGQGTQVTVSS | high polyreactivity
14 | QVQLVESGGGLVQAGGSLRLSCAASGFTFFPNAKGWYRQAPGKERELVADITDGGSTNYADSVKGRFTISRDNAKNTVYLQMNSLKPEDTAVYYCNADWYGWFGGYEYWGQGTQVTVSS | high polyreactivity
15 | QVQLVESGGGLVQAGGSLRLSCAASGFTFFRYAMGWYRQAPGKERELVASITSGGSTNYADSVKGRFTISRDNAKNTVYLQMNSLKPEDTAVYYCAAGSSFFRWVYEATGFYYWGQGTQVTVSS | high polyreactivity
16 | QVQLVESGGGLVQAGGSLRLSCAASGFTFFRYAMGWYSQAPGKERELVATITRGGSTNYADSVKGRFTISRDNAKNTVYLQMNSLQPVDTAVYYCNKDKKTPTFDYWGQGTQVTVSS | low polyreactivity

Row | Sequence | polyreactivity (PSR sort gate)
17 | QVQLVESGGGLVQAGGSLRLSCAASGFTFFVYAMGWYRQAPGKERELVAVITSGGTTNYADSVKGRFTISRDNAKNTVYLQMNSLKPEDTAVYYCATDNGGIPKYVPYDFWGQGTQVTVSS | high polyreactivity
18 | QVQLVESGGGLVQAGGSLRLSCAASGFTFFYNAMGWYRQAPGKEREFVAAISGRGGTTYYADSVKGRFTISRDNAKNTVYLQMNSLKPEDTAVYYCAAYYRGYAYNYWGQGTQVTLSS | high polyreactivity
19 | QVQLVESGGGLVQAGGSLRLSCAASGFTFFYVYTMGWYRQAPGKEREFVAAIDWTGRTYYADSVKGRFTISRDNAKNTVYLQMNSLKPEDTAVYYCNADVAPGIFYGYDSWGQGTQVTVSS | low polyreactivity
20 | QVQLVESGGGLVQAGGSLRLSCAASGFTFGDYAMGWYRQAPGKERELVAAITSTGGSTYYADSVKGRFTISRDNEKHSVYLQMNCLKPEDTAVYYCAKPDYYRMGYWGQGTQVTVCS | low polyreactivity
21 | QVQLVESGGGLVQAGGSLRLSCAASGFTFGDYAMGWYRQAPGKEWELVAAISWSAGSTYYADSVKGRFTISRDNAKNTVYVQMNSLKPEDTAVYYCAADDSATIEDDYWGQGTQVTVSS | high polyreactivity
22 | QVQLVESGGGLVQAGGSLRLSCAASGFTFGENAMGWYRQAPGKERELVATISDSGDSTYYADSVKGRFTISRDNAQNTVYLQMNSLKPEDTAVYYCAAPLPHRGYDEGYWGQGTQVTVSS | low polyreactivity
23 | QVQLVESGGGLVQAGGSLRLSCAASGFTFGEYAMGWYRQQPGKERELVAAISSSSGSTYYADSVKGRFTISRDNAKYTVYLQMNSLKPEDTAVYYCAATTSPRSARYYYWGQGTQVTVSS | high polyreactivity
24 | QVQLVESGGGLVQAGGSLRLSCAASGFTFGGNAMGWYRQAPGKERELVADITWSGGSTYYADSVKGRFTISRDNAKNTVYLQMNSLKPEDTAVYYCNTVRYPSSNSGLDYWGQGTQVTVSS | high polyreactivity
25 | QVQLVESGGGLVQAGGSLRLSCAASGFTFGGYAMGWYRQAPGKERELVAAIRSTGDTTYYADSVKGRFTISRDNAKNTVYVQMNSLKPEDTAVYYCNADLSRDNDFDYWGQGTQVTVSS | low polyreactivity
26 | QVQLVESGGGLVQAGGSLRLSCAASGFTFGGYAMGWYRQAPGKERELVAAITGSGGNTFYADSVKGRFTISRDNAKNTVYLQMNSLKPEDTAVYYCAALAPYIGGVDYDYWGQGTQVTVSS | low polyreactivity
27 | QVQLVESGGGLVQAGGSLRLSCAASGFTFGGYAMGWYRQAPGKERELVAAITRSGGRTYYADSVKGRFTISRDNAKNTVYLQMNSLKPEDTAVYYCNAYVIRALGYGGYDYWGQGTQVTVSS | high polyreactivity
28 | QVQLVESGGGLVQAGGSLRLSCAASGFTFGGYARGWSRQAPRTERELVAAISSSAGRTYYADSVKGRFTISRDNAKNTVYVQMNRLKPEDTAVYYCNTGGVYGPRRYYYWGQGTQVTVSS | high polyreactivity
29 | QVQLVESGGGLVQAGGSLRLSCAASGFTFGHYAMGWYRQAPGKERELVAAISKSGTRTYYADSVKGRFTISRDNAKNTVYLLMNSLKPEDTAVYYCATTAYNGYDYWGQGTQVTVSS | high polyreactivity
30 | QVQLVESGGGLVQAGGSLRLSCAASGFTFGHYAMGWYRQAPGKERELVAAISRSGGTTSYADSVKGRFTISRDNAKNTVYLQMNSLKPEDTAVYYCNKDYIWARYGGGRDYWGQGTQVTVSS | low polyreactivity
31 | QVQLVESGGGLVQAGGSLRLSCAASGFTFGHYVMGWSRQAPGKERELVAAITLSGGGTYYADSVKGRFTISRDNAKNTVYLQMNSLKPEDTAVYYCAAVGGEHAKKTYSRYKVDYWGQGTQVTVSS | low polyreactivity
32 | QVQLVESGGGLVQAGGSLRLSCAASGFTFGLYGMGWYRQAPGKERELVAAISSSGGDTYYADSVKGRFTISRDNAKNTVYLQMNSLKPEDTAVYYCAADRLPQYDYWGQGTQVTVSS | low polyreactivity

Source: the nanobody polyreactivity screen of Harvey et al. (2022)
